According to PMC9505737:

Tests used:
[1] = tested on: Immunoglobulin E (IgE), human myeloma (human); test: NECEEM (CE-LIF); settings: 25 nM DNA and 25 nM IgE, 10 mM Tris-HCl pH 9.0, no added salt in CE-LIF/NECEEM, temperature not stated
[2] = tested on: Immunoglobulin E (IgE), human myeloma (human); test: cited; settings: 10 mM Tris-HCl pH 9.0, no added salt in CE-LIF/NECEEM; temperature not stated; cited from earlier work

GACTACCCGGGTATCTAATCCGCGTATGGTCATGGATGTGCATACACCCCGCCTATCAGAACTGCTGCCGCCCGTAGG [S1]
Kd [1]: 0.83 nM

GACTACCCGGGTATCTAATCCGACCATTTTTCGTCTCCTTTGTACGAGCAGTGTGCTCGACCTGCCGCCCGTAGG [S2]
Kd ([1]; alternative from both peaks, not adopted): 34.6 nM | Kd ([1]; alternative from sharp peak, not adopted): 28.4 nM | Kd ([1]; from broad peak (value adopted by authors)): 1.55 nM

GACTACCCGGGTATCTAATCCTGAAACATAGCATATTTACTTATGTCGCCTTGCCGGTTCTGCTGCCGCCCGTAGG [FITC-IgE-Apt (published IgE aptamer)]
Kd [2]: 23 nM
